Results reported in PMC7820290.

Biological target: SARS-CoV-2 nucleocapsid (N), wild type (SARS-CoV-2, UniProt P0DTC9 1-419)
Assay: co-condensation microscopy; 10 uM N, maximal at 5 uM RNA, reentrant
Conditions: protein: recombinant; tags: N-terminal His6 cleaved by TEV; Cys inserted before residue 1 in the dye-labelled fraction; chain copies: 2; label: 6-FAM (fluorescein)

AAGCAGCUAAGAGCGAA (ssRNA) [17-mer RNA]
binding result: binds
